T1: GDF8 (UniProt O14793 267-375)
T1 construct: also called myostatin
T1 sequence (looked up): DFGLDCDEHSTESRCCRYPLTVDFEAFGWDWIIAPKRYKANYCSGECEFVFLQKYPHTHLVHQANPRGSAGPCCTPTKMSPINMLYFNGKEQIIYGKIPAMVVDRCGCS

T2: BMP6 (UniProt P22004 375-513, limits assumed)
T2 sequence (looked up): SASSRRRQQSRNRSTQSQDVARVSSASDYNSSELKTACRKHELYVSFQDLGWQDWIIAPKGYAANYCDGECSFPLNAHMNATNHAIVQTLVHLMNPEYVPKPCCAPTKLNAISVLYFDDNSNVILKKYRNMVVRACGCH

T3: Soluble ActRIIB-Fc +15tail (Homo sapiens (Human), UniProt Q13705 19-134)
T3 construct: not shown: linker and Fc
T3 sequence (looked up): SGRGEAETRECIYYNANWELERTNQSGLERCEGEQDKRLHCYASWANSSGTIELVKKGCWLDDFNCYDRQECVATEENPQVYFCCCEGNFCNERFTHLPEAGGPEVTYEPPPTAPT

T4: activin A (UniProt P08476 311-426)
T4 construct: also called ActA
T4 sequence (looked up): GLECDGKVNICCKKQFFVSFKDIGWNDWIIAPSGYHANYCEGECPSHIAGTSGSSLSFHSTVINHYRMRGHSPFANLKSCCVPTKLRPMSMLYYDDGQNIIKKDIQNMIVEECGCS

T5: activin B (UniProt P09529 293-407)
T5 sequence (looked up): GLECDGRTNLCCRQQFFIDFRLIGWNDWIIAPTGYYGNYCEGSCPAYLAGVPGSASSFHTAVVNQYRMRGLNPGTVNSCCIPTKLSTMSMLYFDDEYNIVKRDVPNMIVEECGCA

T6: activin AB (UniProt P08476 311-426; P09529 293-407)
T6 sequence (looked up) 1: T4 sequence (looked up)
T6 sequence (looked up) 2: T5 sequence (looked up)

T7: activin AC (UniProt P08476 311-426; P55103 237-352)
T7 sequence (looked up) 1: T4 sequence (looked up)
T7 sequence (looked up) 2: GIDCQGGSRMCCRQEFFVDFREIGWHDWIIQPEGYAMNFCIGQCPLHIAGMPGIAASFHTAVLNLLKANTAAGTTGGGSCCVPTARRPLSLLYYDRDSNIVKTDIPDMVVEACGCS

T8: BMP7 (UniProt P18075 293-431)
T8 sequence (looked up): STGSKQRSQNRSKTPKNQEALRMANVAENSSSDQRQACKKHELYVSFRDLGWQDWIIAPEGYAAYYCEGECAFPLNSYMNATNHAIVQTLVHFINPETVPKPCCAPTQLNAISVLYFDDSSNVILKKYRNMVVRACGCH

B1: ActRIIB(L79D 25-131)-hFc (Fc fusion)
chain: ETRECIYYNANWELERTNQSGLERCEGEQDKRLHCYASWRNSSGTIELVKKGCWDDDFNCYDRQECVATEENPQVYFCCCEGNFCNERFTHLPEAGGPEVTYEPPPTGGGTHTCPPCPAPELLGGPSVFLFPPKPKDTLMISRTPRVTCVVVDVSHEDPEVKFNWYVDGVEVHNAKTKPREEQYNSTYRVVSVLTVLHQDWLNGKEYKCKVSNKALPAPIEKTISKAKGQPREPQVYTLPPSREEMTKNQVSLTCLVKGFYPSDIAVEWESNGQPENNYKTTPPVLDSDGSFFLYSKLTVDKSRWQQGNVFSCSVMHEALHNHYTQKSLSLSPGK
B2: BMP10 (ligand, UniProt O95393 317-424, looked up)
chain: NAKGNYCKRTPLYIDFKEIGWDSWIIAPPGYEAYECRGVCNYPLAEHLTPTKHAIIQALVHLKNSQKASKACCVPTKLEPISILYLDKGVVTYKFKYEGMAVSECGCR
B3: GDF11 (ligand, UniProt O95390 299-407, looked up)
chain: NLGLDCDEHSSESRCCRYPLTVDFEAFGWDWIIAPKRYKANYCSGQCEYMFMQKYPHTHLVQQANPRGSAGPCCTPTKMSPINMLYFNDKQQIIYGKIPGMVVDRCGCS
notes: also called BMP11
B4: Soluble ActRIIB-Fc L79A (Table 11) (Fc fusion, UniProt Q13705 19-119, looked up, not shown: a dimerising Fc or GST)
chain: SGRGEAETRECIYYNANWELERTNQSGLERCEGEQDKRLHCYASWANSSGTIELVKKGCWADDFNCYDRQECVATEENPQVYFCCCEGNFCNERFTHLPEA
B5: Soluble ActRIIB-Fc R40A (Table 11) (Fc fusion, UniProt Q13705 19-119, looked up, not shown: a dimerising Fc or GST)
chain: B4 chain with R22A, A61L
B6: ALK4-Fc homodimer (Fc fusion, not shown: a dimerising Fc or GST)
chain: SGPRGVQALLCACTSCLQANYTCETDGACMVSIFNLDGMEHHVRTCIPKVELVPAGKPFYCLSSEDLRNTHCCYTDYCNRIDLRVPSGHLKEPEHPSMWGPVE

In assay [1] the target is T1, GDF8. Put plainly: SPR (Biacore). In general terms: Surface plasmon resonance follows binding to a sensor surface in real time, without labels.
Assay [2] deals with T2, BMP6. Put plainly: SPR (Biacore).
Assay [3] has as its target B2. Put plainly: SPR (Biacore).
Assay [4] has as its target T9, ActRIIA-mFc (human, UniProt P27037 21-135).
T9 construct: not shown: minimal linker and mouse Fc domain
Put plainly: SPR (Biacore), similar binding assay. How it is done:
GDF11 or activin A were immobilized on a Biacore™ CM5 chip using standard amine-coupling procedure. ActRIIA-hFc and ActRIIA-mFc proteins were loaded onto the system, and binding was measured. […] Using a similar binding assay, ActRIIA-hFc was determined to have high to moderate affinity for other TGF-beta superfamily ligands including, for example, activin B, GDF8, BMP6, and BMP10. ActRIIA-mFc behaved similarly.

The target in assay [5] is T9, ActRIIA-mFc. Put plainly: SPR (Biacore); ligand amine-coupled to CM5 chip, receptor-Fc injected.
Assay [6] concerns the target T3, Soluble ActRIIB-Fc +15tail. Put plainly: SPR (Biacore); ligand coupled, receptor flowed over (as reported in WO2006/012627). From the text: (§1) Other variants have been generated and tested, as reported in WO2006/012627 (incorporated herein by reference in its entirety). See, e.g., pp. 59-60, using ligands coupled to the device and flowing receptor over the coupled ligands. […] Table 11 showing data with respect to these variants is reproduced below: […]

The target in assay [7] is B3. The description is as above.
Text: as §1

The target in assay [8] is T4, activin A. Put plainly: SPR (Biacore); ligand coupled, receptor flowed over (as reported in WO2006/012627); + means WT.
Text: as §1

The target of assay [9] is T4, activin A. Put plainly: SPR (Biacore); ligand coupled, receptor flowed over (as reported in WO2006/012627); - means ~1/2 WT binding.
Text: as §1

Assay [10] has as its target B3. Described as above.
Text: as §1

The target of assay [11] is T4, activin A. Put plainly: SPR (Biacore); receptor-Fc captured by anti-Fc antibody, ligand injected. How it is done:
(§2) A Biacore™-based binding assay was used to compare ligand binding selectivity of the ALK4-Fc:ActRIIB-Fc heterodimeric complex described above with that of ActRIIB-Fc and ALK4-Fc homodimer complexes. The ALK4-Fc:ActRIeB-Fc heterodimer, […], and ALK4-Fc homodimer were independently captured onto the system using an anti-Fc antibody. Ligands were injected and allowed to flow over the captured receptor protein. Results are summarized in Table 13 below, in which ligand off-rates (kd) most indicative of effective polypeptides are denoted in bold.

In assay [12] the target is B3. Described as above. How it is done:
as §2

Assay [13] addresses T5, activin B. The description is as above. How it is done: as §2
In assay [14] the target is T4, activin A. The assay is described as above. How it is done:
(§3) A Biacore™-based binding assay was used to compare ligand binding selectivity of the ActRIIA-Fc:ALK4-Fc heterodimeric complex described above with that of ActRIIA-Fc and ALK4-Fc homodimeric complexes. The ActRIIA-Fc:ALK4-Fc heterodimer, ActRIIA-Fc homodimer, and ALK4-Fc homodimer were independently captured onto the system using an anti-Fc antibody. Ligands were injected and allowed to flow over the captured receptor protein. Results are summarized in Table 14 below, in which ligand off-rates (kd) most indicative of effective ligand traps are denoted in bold.
The source holds these as a separate data set.

Assay [15] deals with B3. The assay is described as above. How it is done:
as §3
The source holds these as a separate data set.

The target of assay [16] is T6, activin AB. Described as above. How it is done:
as §3

In assay [17] the target is T7, activin AC. The description is as above. How it is done:
as §3

Assay [18] addresses T2, BMP6. The assay is described as above. How it is done:
as §3

Assay [19] addresses T8, BMP7. Described as above. How it is done: as §3
Assay [20] has as its target B2. The description is as above. How it is done: as §3
In assay [21] the target is B3. Put plainly: SPR (Biacore); receptor-Fc captured by anti-Fc antibody, ligand injected; † Very low signal. How it is done: as §3
Assay [22] concerns the target B3. Described as above. How it is done:
as §3
The source holds these as a separate data set.

Substitutions are numbered along the chain they refer to. Numbers in names are those of the source. Read-outs that look alike come from different tables or passages of the source.

T9 sequence (P27037 21-135): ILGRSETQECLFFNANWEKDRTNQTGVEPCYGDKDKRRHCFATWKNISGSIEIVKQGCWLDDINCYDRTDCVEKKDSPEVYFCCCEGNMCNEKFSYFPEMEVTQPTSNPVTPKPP

With B1, the binding result in assay [1], in assay [2] and in assay [3] was “binds” throughout.
For B2, the binding result in assay [4] is “binds”.
For orientation: Kd means a measure of binding affinity in units of concentration. Read a low Kd as tighter binding. On to B3, for which, in [5], the binding result was “binds”. The Kd in assay [6] was determined as 19 nM.
With B4, the binding result in assay [7] is on record as “no binding”; in assay [8], “binds”.
In the case of B5, the binding result in [9] and in assay [10] was “binds” each time.
As usually defined, the koff is the rate constant with which the complex falls apart. A lower koff goes with slow dissociation. As a reminder, the kon is the rate constant with which the complex forms. Low values mean slow association, high ones fast association. Take B6: the Kd in assay [11] is 20 nM; in assay [14], 20 nM; in assay [16], 2 nM; in assay [21], 0.97 nM; in [22], 0.97 nM. For the same molecule, the koff in assay [11] was found to be 0.012 s⁻¹; in [12], 0.0048 s⁻¹; in assay [14] it was 0.012 s⁻¹; in [15], 0.0048 s⁻¹; in assay [16] it was 0.0036 s⁻¹. Besides, the kon in assay [11] stood at 580000 M⁻¹ s⁻¹; in assay [12], 5e+06 M⁻¹ s⁻¹; in assay [14] it was 580000 M⁻¹ s⁻¹; in assay [15], 5e+06 M⁻¹ s⁻¹; in assay [16], 1.8e+06 M⁻¹ s⁻¹. Besides, the binding result in assay [13], in assay [17], in assay [18], in assay [19] and in assay [20] was “no binding” throughout.

The values above are taken from patent publication US20230129812A1 (ACCELERON PHARMA, published 2023).
